The record followed here is the supplement of paper PMC9112550, “Optimization of the antimicrobial peptide Bac7 by deep mutational scanning” (BMC Biology, 2022).
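Also: peptides expressed intracellularly from a pBAD plasmid library in pooled LB shake-flask culture, induced with 0.3% L-arabinose, DNA abundance read by NGS, three biological replicates, DESeq2 with apeglm shrinkage.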

The data set concerns Escherichia coli TOP10. Nature of the data set: shrunken log2 fold change of peptide-encoding DNA abundance (4.5 h post-induction vs induction); higher = less antimicrobial activity (less host growth inhibition). The note with it: time post-induction: 4.5 h; library: site-saturation at positions 5, 18, 19, 20.
Turning to RRIRNRPPRLPRPRPRPPMVPRP, the “shrunken log2 fold change” value is -0.0558.

Turning to RRIRRRPPRLPRPRPRPAPFPRP, the “shrunken log2 fold change” value turned out to be 0.863.

As to RRIRNRPPRLPRPRPRPMWCPRP, the “shrunken log2 fold change” value was -0.0647.

Take RRIRMRPPRLPRPRPRPQFLPRP: the “shrunken log2 fold change” value was -0.106.

For the sequence RRIRYRPPRLPRPRPRPADIPRP, the “shrunken log2 fold change” value is -0.0376.

For RRIRPRPPRLPRPRPRPACMPRP, the “shrunken log2 fold change” value is 0.165.

Turning to RRIRIRPPRLPRPRPRPCQNPRP, the “shrunken log2 fold change” value is -0.282.

Consider RRIRQRPPRLPRPRPRPWWIPRP, for which the “shrunken log2 fold change” value is -0.185.

For RRIRDRPPRLPRPRPRPEVLPRP, the “shrunken log2 fold change” value came to 1.14.

With RRIRARPPRLPRPRPRPIYSPRP, the “shrunken log2 fold change” value is -0.227.

As for RRIRCRPPRLPRPRPRPMHFPRP, the “shrunken log2 fold change” value was found to be 0.102.

As for RRIRMRPPRLPRPRPRPREPPRP, the “shrunken log2 fold change” value turned out to be 0.447.

Turning to RRIRMRPPRLPRPRPRPCKYPRP, the “shrunken log2 fold change” value is -0.0297.

As to RRIRERPPRLPRPRPRPNGHPRP, the “shrunken log2 fold change” value was determined as 0.0479.

On to RRIRRRPPRLPRPRPRPYMWPRP, for which the “shrunken log2 fold change” value is -0.374.

Regarding RRIRIRPPRLPRPRPRPRGMPRP, the “shrunken log2 fold change” value came to 0.0423.

As for RRIRWRPPRLPRPRPRPGLDPRP, the “shrunken log2 fold change” value was 0.601.

Take RRIRSRPPRLPRPRPRPPIEPRP: the “shrunken log2 fold change” value came out at 0.314.

In the case of RRIRARPPRLPRPRPRPQIYPRP, the “shrunken log2 fold change” value is -0.354.

For the sequence RRIRWRPPRLPRPRPRPNSTPRP, the “shrunken log2 fold change” value is -0.326.

RRIRVRPPRLPRPRPRPPGRPRP: the “shrunken log2 fold change” value stood at 0.593.

In the case of RRIRCRPPRLPRPRPRPYGLPRP, the “shrunken log2 fold change” value was -0.0136.

As for RRIRWRPPRLPRPRPRPAWRPRP, the “shrunken log2 fold change” value was 0.642.

For the sequence RRIRSRPPRLPRPRPRPTGMPRP, the “shrunken log2 fold change” value was found to be 0.0395.

RRIRPRPPRLPRPRPRPPPLPRP: the “shrunken log2 fold change” value was determined as 0.699.

On to RRIRARPPRLPRPRPRPTQTPRP, for which the “shrunken log2 fold change” value was determined as 0.69.

As for RRIRKRPPRLPRPRPRPCEMPRP, the “shrunken log2 fold change” value came to 0.0303.

RRIRFRPPRLPRPRPRPMPCPRP: the “shrunken log2 fold change” value is -0.557.

As for RRIRRRPPRLPRPRPRPVLVPRP, the “shrunken log2 fold change” value was determined as 0.487.

Consider RRIRNRPPRLPRPRPRPCSGPRP, for which the “shrunken log2 fold change” value is -0.242.

Consider RRIRRRPPRLPRPRPRPCHKPRP, for which the “shrunken log2 fold change” value was determined as 0.153.

Regarding RRIRGRPPRLPRPRPRPWSLPRP, the “shrunken log2 fold change” value was determined as 0.094.

For the sequence RRIRCRPPRLPRPRPRPVEVPRP, the “shrunken log2 fold change” value was -0.0243.

For the sequence RRIRFRPPRLPRPRPRPSDYPRP, the “shrunken log2 fold change” value was -0.219.

Consider RRIRIRPPRLPRPRPRPRTNPRP, for which the “shrunken log2 fold change” value was -0.159.

Regarding RRIRVRPPRLPRPRPRPRCFPRP, the “shrunken log2 fold change” value was found to be 0.05.

Regarding RRIRYRPPRLPRPRPRPPHIPRP, the “shrunken log2 fold change” value is -0.808.

Turning to RRIRNRPPRLPRPRPRPSASPRP, the “shrunken log2 fold change” value is -0.2.

Take RRIRQRPPRLPRPRPRPHHEPRP: the “shrunken log2 fold change” value was 0.0974.

With RRIRGRPPRLPRPRPRPPGPPRP, the “shrunken log2 fold change” value is 0.821.

RRIRCRPPRLPRPRPRPMIYPRP: the “shrunken log2 fold change” value is -0.144.

RRIRWRPPRLPRPRPRPLAAPRP: the “shrunken log2 fold change” value stood at 0.994.

For RRIRVRPPRLPRPRPRPVPNPRP, the “shrunken log2 fold change” value was -0.175.

As to RRIRRRPPRLPRPRPRPSKSPRP, the “shrunken log2 fold change” value worked out at 0.292.

As for RRIRARPPRLPRPRPRPICRPRP, the “shrunken log2 fold change” value came out at 0.349.

Consider RRIRCRPPRLPRPRPRPWIFPRP, for which the “shrunken log2 fold change” value is -0.159.

Take RRIRLRPPRLPRPRPRPKHKPRP: the “shrunken log2 fold change” value is -0.103.

With RRIRQRPPRLPRPRPRPICTPRP, the “shrunken log2 fold change” value is -0.0531.

Take RRIRTRPPRLPRPRPRPTLNPRP: the “shrunken log2 fold change” value was 0.569.

In the case of RRIRNRPPRLPRPRPRPSDAPRP, the “shrunken log2 fold change” value came out at 0.0594.
